Here are results for 3 molecules from US20260201030A1 (EVOPOINT BIOSCIENCES, published 2026).

In assay [1] the target is T1, human Claudin18.2 (human, UniProt P56856-2 1-261). Nature of the assay: cell-based or functional assay.
Assay [2] concerns the target T1, human Claudin18.2. Nature of the assay: FACS on NUGC4-Claudin18.2 (human) cells. On the procedure:
(§1) The affinity of the anti-human Claudin18.2 humanized antibodies was detected by flow cytometry. The experimental procedures were as follows: The adherent cultured HEK293T-Claudin18.2 (human), NUGC4-Claudin18.2 (human) and NUGC4 cells were digested, collected by centrifugation, and washed three times with pre-cooled PBS. The cells were resuspended in 1% BSA (in PBS) and added to a 96-well pointed bottom plate at 3×10⁵ cells/well, with a volume of 50 μL per well. Each test antibody was diluted with 1% BSA (in PBS) (starting at 100 μg/mL, diluted in a 3-fold gradient, for 10 concentration points). The test antibody subjected to gradient dilution was added to the cells at 50 μL/well, and the mixture was well mixed and incubated at 4° C. for 1 h. The cells were collected by centrifugation, washed three times with pre-cooled PBS, and resuspended in 50 μL of 1% BSA (in PBS). 1 μL of a fluorescent secondary antibody (Biolegend-410712) was added to each well, and the mixture was well mixed and incubated at 4° C. for 0.5 h. The cells were collected by centrifugation, washed three times with pre-cooled PBS, resuspended in 200 μL of PBS, and assayed on a machine.

Assay [3] deals with T1, human Claudin18.2. The experiment in a line: FACS on HEK293T-Claudin18.2 (human) cells. Here is the method: as §1
The next assay addresses T2, mouse Claudin18.2 (mouse, UniProt P56857-3 1-264, limits assumed).
T2 construct: whole, on cells; also called HEK293T-Claudin18.2 (mouse)
Nature of the assay: FACS on HEK293T-Claudin18.2 (mouse) cells. Here is the method: The mixture was incubated at 4° C. for 0.5 h, and the cells were washed three times with pre-cooled PBS, then resuspended, and assayed on a flow cytometer.

For assay [4], the target named is T1, human Claudin18.2. Nature of the assay: cell-based ELISA on L929-Claudin18.2 (human) cells.
For assay [5], the target named is T1, human Claudin18.2. Nature of the assay: cell-based ELISA on NUGC4-Claudin18.2 (human) cells.
Assay [6] deals with T1, human Claudin18.2. Nature of the assay: cell-based ELISA on HEK293T-Claudin18.2 (human) cells. On the procedure:
The affinity of the anti-human Claudin18.2 murine monoclonal antibodies was evaluated by cell-based ELISA. The experimental procedures were as follows: The day before the experiment, HEK293T-Claudin18.2 (human) cells were plated in a 96-well plate at 5×10⁴ cells/well. On the day of the experiment, the supernatant was removed, the cells in each well were washed once with 300 μL of PBS, and 100 μL of 4% paraformaldehyde was added to each well for fixation at room temperature for 20 min. Paraformaldehyde was then removed, and the cells in each well were washed twice with 300 μL of PBS. 100 μL of 2% BSA (in PBS) was added to each well, and the mixture was blocked at 37° C. for 2 h. After removing the blocking solution, each antibody subjected to gradient dilution (diluted with 2% BSA (in PBS), starting at […], in a 3-fold gradient, for a total of 11 concentration points) was added to the plate at 100 μL/well, and the mixture was incubated at 37° C. for 2 h. The supernatant was removed, and the cells in each well were washed three times with 300 μL of PBST. […] The reaction was stopped by adding 50 μL of 2 N HCl to each well, and OD_{450 nm} values were read on a microplate reader (manufacturer: MD, model: SpectraMax). […]
The affinity of the anti-human Claudin18.2 humanized monoclonal antibodies was determined by cell-based ELISA. […]

The next assay concerns the target T3, human Claudin18.1 (human, UniProt P56856 1-261).
T3 construct: whole, on cells; also called CLDN18.1; HEK293T-Claudin18.1 (human)
The experiment in a line: FACS on HEK293T-Claudin18.1 (human) cells, antibody 50 µg/mL. Here is the method:
The specificity of the anti-human Claudin18.2 humanized monoclonal antibodies was determined by flow cytometry (FACS). The experimental procedures were as follows: HEK293T-Claudin18.1 (human) cells were digested, collected by centrifugation, washed three times with pre-cooled PBS, resuspended in 1% BSA (in PBS), and added to a 96-well pointed bottom plate at 3×10⁵ cells/well. Each test antibody with a final concentration of 50 μg/mL was added, and the mixture was incubated at 4° C. for 1 h. The cells were washed three times with pre-cooled PBS, and then 1 μL of a fluorescent secondary antibody (APC: Biolegend-410712 or PE: BioLegend-410708) was added to each well. The mixture was incubated at 4° C. for 0.5 h, and the cells were washed three times with pre-cooled PBS, then resuspended, and assayed on a flow cytometer. For reference, anti-human Claudin18.1 positive control antibodies (positive control antibody-1 and positive control antibody-2) were included in the experiment.

In assay [7] the target is T1, human Claudin18.2. The experiment in a line: cell-based ELISA on NUGC4 cells (endogenous human Claudin18.2).
In assay [8] the target is T1, human Claudin18.2. Nature of the assay: cell-based ELISA (OD450) on NUGC4 cells (endogenous human Claudin18.2).
Assay [9] deals with T1, human Claudin18.2. The experiment in a line: cell-based ELISA on L929-claudin 18.2 (human) and NUGC4 cells, ADC.

T2 sequence (P56857 other isoform, or with tags, fused parts or gaps limits assumed): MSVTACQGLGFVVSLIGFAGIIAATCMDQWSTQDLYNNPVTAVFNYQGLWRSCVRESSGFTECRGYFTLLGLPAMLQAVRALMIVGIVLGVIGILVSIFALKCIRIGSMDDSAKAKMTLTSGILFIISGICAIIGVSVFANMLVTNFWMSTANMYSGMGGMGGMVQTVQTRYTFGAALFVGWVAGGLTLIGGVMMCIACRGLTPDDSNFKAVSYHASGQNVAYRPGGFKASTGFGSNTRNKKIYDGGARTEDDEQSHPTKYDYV

B1: 25C7A5-HZ1 (antibody, human IgG1, kappa)
heavy: not shown
light: EIVLTQSPATLSLSPGERATLSCKASENVKTYVSWYQQKPGQSPRLLIYEASNRYTGVPARFSGSGSATDFTLTISSLEPEDFAVYFCGQTYSFPPTFGQGTKVEIKRTVAAPSVFIFPPSDEQLKSGTASVVCLLNNFYPREAKVQWKVDNALQSGNSQESVTEQDSKDSTYSLSSTLTLSKADYEKHKVYACEVTHQGLSSPVTKSFNRGEC
notes: Humanized IgG1/kappa
Regarding B1, the “ADCC activity EC50 (Jurkat-NFAT-CD16a luciferase reporter, HEK293T-Claudin18.2 (human) target cells)” value in the assay with human Claudin18.2 [1] was found to be 0.0465 µg/mL. In the assay with human Claudin18.2 [1], the “CDC activity EC50 (guinea pig serum killing, CCK8, HEK293T-Claudin18.2 (human) cells)” value was 3.14 µg/mL. The EC50 in the assay with human Claudin18.2 [2] turned out to be 3.19 µg/mL; with human Claudin18.2 [3], 0.292 µg/mL; with mouse Claudin18.2, 0.941 µg/mL; with human Claudin18.2 [4], 0.0134 µg/mL; in the assay with human Claudin18.2 [5] it was 0.108 µg/mL; with human Claudin18.2 [6], 0.0112 µg/mL. The EC50 in the assay with human Claudin18.2 [7] is 0.101 µg/mL. For the same molecule, the Maximum signal value stood at 114000 in the assay with human Claudin18.2 [3] and 0.304 in the assay with human Claudin18.2 [8]. The “Positive rate (%)” value with human Claudin18.1 came to 0.54%.

B2: ADC formed by conjugation of 25C7A5-HZ1 (antibody, human IgG1, kappa)
heavy: not shown
light: B1 light
modifications: toxin linker conjugated to cysteine sulfhydryl groups after TCEP reduction (positions not given); toxin linker conjugated to cysteine sulfhydryl groups after TCEP reduction (positions not given); DAR 6.82 (B82 batch) or 7.97 (B81 batch)
notes: also called conjugated 25C7A5-HZ1; 25C7A5-HZ1-B82
On to B2, for which the binding result in the assay with human Claudin18.2 [9] is “binds”.

B3: ADC formed by conjugation of 25C7A5-HZ2 (antibody, human IgG1, kappa)
heavy: not shown
light: B1 light
modifications: toxin linker conjugated to cysteine sulfhydryl groups after TCEP reduction (positions not given); toxin linker conjugated to cysteine sulfhydryl groups after TCEP reduction (positions not given); DAR 7.10
notes: The label B82 is not explained; also called conjugated 25C7A5-HZ2; 25C7A5-HZ2-B82
Turning to B3, the binding result in the assay with human Claudin18.2 [9] is “binds”.
